Reference: patent publication US9266964
Where a chain is given by its changes, count along the chain named.

B1: M76-D01 (Fab, V domains shown)
VH: EVQLLESGGGLVQPGGSLRLSCAASGFTFSFYAMHWVRQAPGKGLEWVSGIVPSGGRTHYADSVKGRFTISRDNSKNTLYLQMNSLRAEDTAVYYCATDSSGSPNPLFDYWGQGTLVTVSS
VL: DIVMTQTPPSLPVNPGEPASISCRSSQSLSDDGNTYLDWYLQRPGQSPQLLIHTLSYRASGVPDRFSGSGSGTDFTLKISRVEAEDVGVYYCMQGTHWPPTFGQGTKVEIK
notes: Printed HC runs from VH into the start of CH1 (printed end APSPKS)
B2: M137-E12 (Fab, V domains shown)
VH: EVQLLESGGGLVQPGGSLRLSCAASGFTFSDYRMQWVRQAPGKGLEWVSVIVPSGGNTMYADSVKGRFTISRDNSKNTLYLQMNSLRAEDTAVYYCARGGPGSSIAARRAPTGYYGMDVWGQGTTVTVSS
VL: QSVLIQPPSVSGIPGQRVTISCSGNNSNFGSNTVTWYQQLPGTAPKLLIYSDSRRPSGVPDRFSGSRSDTSASLAISGLQSEDEAEYHCAAWDDSLNGVFGGGTKLTVL
notes: Printed HC runs from VH into the start of CH1
B3: M146-E12 (Fab, V domains shown)
VH: EVQLLESGGGLVQPGGSLRLSCAASGFTFSRYIMHWVRQAPGKGLEWVSSISPSGGLTSYADSVKGRFTISRDNSKNTLYLQMNSLRAEDTAVYYCAREFENAYHYYYYGMDVWGQGTTVTVSS
VL: DIQMTQSPSSLSASVGDRVTITCRASGDIGNALGWYQQKPGKAPRLLISDASTLQSGVPLRFSGSGSGTEFTLTISSLQPEDFATYYCLQGYNYPRTFGQGTKLEIR
notes: as for B2
B4: M161-C11 (Fab, V domains shown)
VH: EVQLLESGGGLVQPGGSLRLSCAASGFTFSDYAMKWVRQAPGKGLEWVSSISSSGGVTQYADSVKGRFTISRDNSKNTLYLQMNSLRAEDTAVYYCAREEDYSSSWYSRRFDYYYGMDVWGQGTTVTVSS
VL: QSALTQPPSVSVSPGQTASITCSGDKLGDKYVSWYQQRPGQSPVLVIYQDTKRPSGIPERFSGSNSGNTATLTISGTQAVDEADYYCQAWDSSTYVFGGGTKVTVL
notes: as for B2
B5: M208-F10 (Fab, V domains shown)
VH: EVQLLESGGGLVQPGGSLRLSCAASGFTFSHYLMTWVRQAPGKGLEWVSYISPSGGHTIYADSVKGRFTISRDNSKNTLYLQMNSLRAEDTAVYYCARVARGIAARSRTSYFDQWGQGTLVTVSS
VL: DIQMTQSPGTLSLSPGERATLSCRTSQFVNSNYLAWYQQTPGQAPRLLIYGASSRATGIPDRFSGTGYGTDFTLTISRLEPEDYGTYYCQQSSRTPWTFGQGTRVEIK
notes: Tested as Fab; printed HC runs into CH1; amber q written Q
B6: M160-G12 (Fab, V domains shown)
VH: B5 VH with Q114Y
VL: DIQMTQSPSFLSASVGDRVTITCRASQGISSYLAWYQQKPGKAPKLLIYAASTLQSGVPSRFSGSGSGTEFTLTISSLQPEDFATYYCQQLNSYPLTFGGGTKVEIK
notes: Printed HC runs from VH into the start of CH1; also called R84-D02 (as IgG)
B7: M208-C06 (Fab, V domains shown)
VH: B5 VH with Y111F, F112I, Q114Y
VL: B5 VL
notes: Tested as Fab; printed HC runs into CH1
B8: M205-D04 (Fab, V domains shown)
VH: B5 VH with H31T, L33K, T35Q, Y50S, H57P, I59N, Q114Y
VL: B5 VL
notes: as for B5
B9: M206-B10 (Fab, V domains shown)
VH: B5 VH with H31Q, T35A, Y50S, S52Y, H57W, I59K, Q114Y
VL: B5 VL
notes: as for B5
B10: M209-B09 (Fab, V domains shown)
VH: B5 VH with R101Q, A104V, F112L, D113H
VL: B5 VL
notes: as for B5
B11: M206-F01 (Fab, V domains shown)
VH: B5 VH with H31G, L33M, T35V, Y50R, H57P, Q114Y
VL: B5 VL
notes: as for B7
B12: M208-F04 (Fab, V domains shown)
VH: B5 VH with Y111F, Q114Y
VL: B5 VL
notes: as for B7
B13: M208-E10 (Fab, V domains shown)
VH: B5 VH with R101Q, A104S, Q114Y
VL: B5 VL
notes: as for B7
B14: M206-H08 (Fab, V domains shown)
VH: B5 VH with H31D, L33M, T35A, Y50S, S52V, I59H, Q114Y
VL: B5 VL
notes: as for B7
B15: M208-G03 (Fab, V domains shown)
VH: B5 VH with F112L, Q114Y
VL: B5 VL
notes: as for B7
B16: M208-H02 (Fab, V domains shown)
VH: B5 VH with A105S, S110R, F112C, Q114Y
VL: B5 VL
notes: as for B7
B17: M162-A04 (Fab, V domains shown)
VH: EVQLLESGGGLVQPGGSLRLSCAASGFTFSHYIMMWVRQAPGKGLEWVSGIYSSGGITVYADSVKGRFTISRDNSKNTLYLQMNSLRAEDTAVYYCAYRRTGIPRRDAFDIWGQGTMVTVSS
VL: DIQMTQSPSTLSASVGDRVTITCRASQSISSWLAWYQQKPGKAPNLLIYKASTLESGVPSRFSGSGSGTEFTLTISSLQPDDFATYYCQQYNTYWTFGQGTKVEIK
notes: Non-germlined Fab discovered using phage display; Printed HC runs from VH into the start of CH1; also called M162-A4; 559A-M162-A4
B18: M73-D06 (Fab, V domains shown)
VH: EVQLLESGGGLVQPGGSLRLSCAASGFTFSRYEMYWVRQAPGKGLEWVSSISSSGGPTAYADSVKGRFTISRDNSKNTLYLQMNSLRAEDTAMYYCAKGTPKWELLLRSIYIENAFDIWGQGTMVTVSS
VL: QSELTQPPSASETPGQRVTISCSGSSSNIGSNTVSWFQQLPGSAPRLLIYNDHRRPSGVPDRFSGSKSGTSASLVISGLQSQDEADYYCSAWDDSLNGVVFGGGTKLTVL
notes: as for B2
B19: M41-A11 (Fab, V domains shown)
VH: EVQLLESGGGLVQPGGSLRLSCAASGFTFSHYRMSWVRQAPGKGLEWVSSIYPSGGRTVYADSVKGRFTISRDNSKNTLYLQMNSLRAEDTAVYYCAKDKFEWRLLFRGIGNDAFDIWGQGTMVTVSS
VL: QSVLTQPPSVSVSPGQTASITCSGDKLGDKYTSWYQQRPGQSPVLVIYQDIKRPSGIPERFSGSNSGNTATLTISGTQAMDEADYYCQAWDSPNARVFGSGTKVTVL
notes: as for B2
B20: M145-D11 (Fab, V domains shown)
VH: B19 VH
VL: B19 VL
notes: Printed HC runs from VH into the start of CH1; also called 559A-M145-D11; 559A-M0145-D11
B21: M110-C12 (Fab, V domains shown)
VH: EVQLLESGGGLVQPGGSLRLSCAASGFTFSYYEMDWVRQAPGKGLEWVSGISSSGGHTAYADSVKGRFTISRDNSKNTLYLQMNSLRAEDTATYYCARERRSSSRARYYYGMDVWGQGTTVTVSS
VL: DIQMTQSPLSLSVTPGEPASISCRSSLSLLHSNGYNYLDWYVQRPGQSPQLLMYLSSTRASGVPDRFSGSGSGTDFTLEISRVEAEDVGVYYCMQPLETPPTFGGGTKVEIK
notes: as for B2
B22: M145-D01 (Fab, V domains shown)
VH: EVQLLESGGGLVQPGGSLRLSCAASGFTFSYYHMSWVRQAPGKGLEWVSVISPSGGSTKYADSVKGRFTISRDNSKNTLYLQMNSLRAEDTAVYYCARGGSSDYAWGSYRRPYYFDYWGQGTLVTVSS
VL: DIQMTQSPATLSLSPGERATLSCRASQSVSSYLAWYQQKPGQAPRLLIYDASNRATGIPARFSGSGSGTDFTLTISSLEPEDFAVYYCQQRSNWPRGFTFGPGTKVDIK
notes: as for B2
B23: M142-H08 (Fab, V domains shown)
VH: EVQLLESGGGLVQPGGSLRLSCAASGFTFSAYSMIWVRQAPGKGLEWVSYIRPSGGRTTYADSVKGRFTISRDNSKNTLYLQMNSLRAEDTAVYYCARGGLLLWFRELKSNYFDYWGQGTLVTVSS
VL: DIQMTQSPSSLSAFVGDRVTITCRASQPIDNYLNWYHQKPGKAPKLLIYAASRLQSGVPSRLSGSGFGTDFTLTISSLQPEDFGNYYCQQSYTVPYTFGGGTKVEIR
notes: as for B2
B24: M152-A12 (Fab, V domains shown)
VH: EVQLLESGGGLVQPGGSLRLSCAASGFTFSPYFMGWVRQAPGKGLEWVSGIGPSGGSTTYADSVKGRFTISRDNSKNTLYLQMNSLRAEDTAVYYCAREGPPYSSGWYRGLRQYHFDYWGQGTLVTVSS
VL: DIQMTQSPSSLSASVGDRVTITCRASQSISSYLSWYQQRPGKAPNLLIYAASSLQSGVPSRFSGSGSGTDFTLTISSLQPEDFATYYCQQSISIPRTFGQGTKVEVK
notes: as for B2

How the values were obtained:
human plasma kallikrein [1] = biological target: T1, human plasma kallikrein (human, UniProt P03952 20-390; P03952 391-638); experiment: ELISA, biotinylated plasma kallikrein coated on microtiter plate, signal divided by streptavidin background
T1 construct: also called pKal; human pKal
From the text: Abbreviations used: "T/B" is the ELISA signal obtained using of the "target" (biotinylated plasma kallikrein) divided by the ELISA signal of the "background" (streptavidin); both of which were coated on microtiter plates. "nd" is not determined. The symbol "q" refers to the amber suppressible stop codon (TAG), which is translated as glutamine (Q) in strains of *E. coli* such as the TG1 cells that were used to express the Fab fragments.
T1 sequence (P03952 20-390, chain 1 of 2): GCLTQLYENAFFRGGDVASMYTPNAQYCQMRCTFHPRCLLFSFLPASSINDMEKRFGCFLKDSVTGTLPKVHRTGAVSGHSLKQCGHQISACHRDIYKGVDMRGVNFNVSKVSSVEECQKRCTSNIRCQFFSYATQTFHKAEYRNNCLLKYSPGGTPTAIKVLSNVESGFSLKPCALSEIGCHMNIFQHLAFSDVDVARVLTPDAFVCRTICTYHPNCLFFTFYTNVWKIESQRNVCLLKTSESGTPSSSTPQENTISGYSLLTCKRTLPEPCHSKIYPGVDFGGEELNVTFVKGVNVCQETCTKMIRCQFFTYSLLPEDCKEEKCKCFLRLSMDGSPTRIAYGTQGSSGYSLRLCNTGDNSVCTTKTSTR
T1 sequence (P03952 391-638, chain 2 of 2): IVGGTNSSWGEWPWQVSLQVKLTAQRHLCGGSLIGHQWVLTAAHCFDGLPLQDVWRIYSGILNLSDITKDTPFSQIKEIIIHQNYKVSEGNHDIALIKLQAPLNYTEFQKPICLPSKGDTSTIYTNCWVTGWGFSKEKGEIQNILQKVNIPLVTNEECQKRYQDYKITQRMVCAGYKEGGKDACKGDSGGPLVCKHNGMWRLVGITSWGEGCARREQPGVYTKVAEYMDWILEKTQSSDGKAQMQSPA

human plasma kallikrein [2] = biological target: T1, human plasma kallikrein; experiment: apparent inhibition constant (Ki,app) against human pKal, enzyme inhibition
human plasma kallikrein [3] = biological target: T2, human plasma kallikrein (human, UniProt P03952 20-390; P03952 391-638); experiment: cell-based or functional assay
T2 sequence (P03952 20-390, chain 1 of 2): as the sequence (P03952 20-390, chain 1 of 2) above
T2 sequence (P03952 391-638, chain 2 of 2): as the sequence (P03952 391-638, chain 2 of 2) above

human plasma kallikrein [4] = biological target: T2, human plasma kallikrein; experiment: Ki,app, inhibition of human pKal enzyme activity

Binder | Human pKal ELISA (T/B) (human plasma kallikrein [1]) | Ki (human plasma kallikrein [2]) [nM] | % inhibition at 10 nM (human plasma kallikrein [3]) [%] | Ki (human plasma kallikrein [4]) [nM]
B1 | 11.2 ratio of ELISA signal on target to background (streptavidin) | < 100 | – | –
B2 | 4.5 ratio of ELISA signal on target to background (streptavidin) | 79 | – | –
B3 | 49.6 ratio of ELISA signal on target to background (streptavidin) | 2.2 | – | –
B4 | 41.8 ratio of ELISA signal on target to background (streptavidin) | 0.3 | – | –
B5 | – | – | 92.5 | 0.2
B6 | 38.3 ratio of ELISA signal on target to background (streptavidin) | 17 | – | –
B7 | – | – | 91.7 | 0.4
B8 | – | – | 91.5 | 0.4
B9 | – | – | 94.7 | 0.3
B10 | – | – | 93.5 | 0.2
B11 | – | – | 92.6 | 0.2
B12 | – | – | 95.4 | 0.2
B13 | – | – | 93.7 | 0.09
B14 | – | – | 96 | 0.17
B15 | – | – | 93.4 | 0.3
B16 | – | – | 94.4 | 0.2
B17 | 11.4 ratio of ELISA signal on target to background (streptavidin) | 4.8 | – | –
B18 | 4 ratio of ELISA signal on target to background (streptavidin) | < 100 | – | –
B19 | 28 ratio of ELISA signal on target to background (streptavidin) | 13 | – | –
B20 | 40 ratio of ELISA signal on target to background (streptavidin) | 0.79 | – | –
B21 | 2.4 ratio of ELISA signal on target to background (streptavidin) | < 100 | – | –
B22 | 6.2 ratio of ELISA signal on target to background (streptavidin) | 1.1 | – | –
B23 | 29.9 ratio of ELISA signal on target to background (streptavidin) | 0.2 | – | –
B24 | 19 ratio of ELISA signal on target to background (streptavidin) | < 100 | – | –
